The target of this experiment is Vasna-Cd4d3+4-bio (zebrafish). Nature of the experiment: SPR; BIAcore; Vasna-Cd4d3+4-bio immobilised on a streptavidin-coated sensor chip at high and low levels, Cd4d3+4-bio as reference; Islr2-Cd4d3+4-6xHis injected in serial dilutions; HBS-EP buffer, 28 °C; 20 μl/min for equilibrium, 100 μl/min for kinetics (7, 14, 28 μM); purification of the Vasna bait before capture not given. In general terms: In SPR one partner is held on a chip, and binding of the other changes the refractive index at the surface.

Substance “Islr2-Cd4d3+4-6xHis (domain or fragment)” gave a Kd of 12.4 µM, a half-life of 0.16 s and a koff of 4.3 s⁻¹.

As a reminder, the Kd is the equilibrium constant for the complex coming apart. Low readings indicate tighter binding, high ones weaker binding. As a reminder, the half-life is how long it takes for the measured level to halve. As a reminder, the koff is the first-order rate constant of dissociation.

Source of the values: publication PMC4618557.
